{
  "source": "patent US6218168A",
  "about": "“Process for preparing O-acetylserine, L-cysteine and L-cysteine-related products” (Consortium fur elektrochemische Inudstrie GmbH, priority 1995, dated 2001)",
  "molecules": {"B1": {"name": "cysEXI: double mutant Thr167->Ala167, Gly245->Ser245 (protein, UniProt P0A9D4 1-273, looked up, variant T167A G245S)", "Serine acetyltransferase": "MSCEELEIVWNNIKAEARTLADCEPMLASFYHATLLKHENLGSALSYMLANKLSSPIMPAIAIREVVEEAYAADPEMIASAACDIQAVRTRDPAVDKYSTPLLYLKGFHALQAYRIGHWLWNQGRRALAIFLQNQVSVTFQVDIHPAAKIGRGIMLDHATGIVVGEAAVIENDVSILQSVTLGGTGKSGGDRHPKIREGVMIGAGAKILGNIEVGRGAKIGAGSVVLQPVPPHTTAAGVPARIVSKPDSDKPSMDMDQHFNGINHTFEYGDGI"}},
  "system": "production strain JM15",
  "test": "Cysteine production in 1 L fermenter, JM15 with plasmid-encoded cysE alleles",
  "format": "cell-based, E. coli",
  "details": "48 h, JM15 transformed with plasmid",
  "method": "Influence of different, plasmid-encoded cysE alleles on the production of L-cysteine or products derived from L-cysteine in a 1 L fermenter using the host strain JM15 20 mL of LB medium (1% tryptone, 0.5% yeast extract, 0.5% NaCl) contained in a 100 mL Erlenmeyer flask were inoculated with a single colony of the production strain JM15 (CGSC#5042) which had been transformed with the respective cysE plasmid.\nAfter having been incubated for 7 hours in a bacterial shaker (30° C., 150 rpm), the respective preliminary cultures were transferred to 100 mL of SM1 medium. The SM1 medium contained 5 g/L glucose, 5 mg/L vitamin B1, 3 g/l KH2 PO4, 12 g/L K2 HPO4, 0.3 g/L MgSO4×7 H2 O, 0.1 g/L NaCl, 5 g/L (NH4)2 SO4, 14.7 mg/L CaCl2×2 H2 O, 2 mg/L FeSO4×2 H2 O, 1 g/L Na3 citrate×2 H2 O, 1 ml/L trace element solution and 25 mg/L tetracycline. The trace element solution was composed of 0.15 g/L Na2 MoO4×2 H2 O, 2.5 g/L H3 BO3, 0.7 g/L CoCl2×6 H2 O, 0.25 g/L CuSO4×5 H2 O, 1.6 g/L MnCl2×4 H2 O and 0.3 g/L ZnSO4×7 H2 O. The cultures were shaken in 1 L Erlenmeyer flasks at 30° C. and at 150 rpm for 17 h. After this incubation, the OD600 was between 4 and 5. The subsequent fermentation was carried out in Braun-Melsungen BIOSTAT M research fermenters. A culturing vessel having a total volume of 2 L was used.\nThe fermentation medium contained 15 g/L glucose, 5 g/L NaCl, 0.3 g/L MgSO4×7 H2 O, 15 mg/L CaCl2×2 H2 O, 75 mg/L FeSO4×7 H2 O, 1 g/L Na3 citrate×2 H2 O, 1.5 g/L KH2 PO4, 1 mL of trace element solution (see above), 5 mg/L vitamin B1, 2.5 g/L yeast extract (Difco), 2.5 g/L tryptone (Difco) and 25 mg/L tetracycline.\nThe glucose concentration in the fermenter was initially adjusted to a value of 15 g/L by pumping in a 700 g/L (w/v) (sterilized) glucose solution, and the pH was adjusted to 7.0 by pumping in a 25% NH4 OH solution. After an OD600 of 10 had been reached, 300 mg per hour were supplied from a sterile 100 g/L (w/v) stock solution of thiosulfate. 100 mL of preliminary culture were pumped into the fermenter vessel for the inoculation. The starting volume was approximately 1 L. The cultures were initially stirred at 400 rpm and aerated with 1.5 vvm of compressed air which had been sterilized by passing through a sterile filter. The fermentation was carried out at a temperature of 30° C.\nThe pH was maintained at a value of 7.0 by means of automatic correction with 25% NH4 OH. The oxygen saturation in the fermentation broth had at no time during the fermentation to fall below 20%; the stirring speed was used to ensure this. The glucose content of the nutrient solution, the optical density and the cysteine content were determined at two- to three-hourly intervals. The glucose content was determined enzymically using a glucose analyzer from YSI. The concentration of the glucose was adjusted to between 10 and 20 g/L by means of continuously feeding in this compound.\nThe content of cysteine in the medium was determined […] from the cell-free super-natant of the sample using the method of Gaitonde, M. K. (1967), Biochem. J. 104, 627-633.\nThe fermentation was terminated after 44-50 h.",
  "data": [
    {"molecule": "B1", "values": [
      {"measurement": "Cysteine yield", "value": 3.4, "unit": "g/L"}
    ]}
  ]
}
